Consider nine molecules from US9290553B2, “Peptides that modulate complex SASPase-FLG2” (L'OREAL, priority 2010, dated 2016).

One data set has as its target T1, SASPase_28 (Homo sapiens, UniProt Q53RT3).
T1 construct: made in house
T1 sequence (Q53RT3 85-343): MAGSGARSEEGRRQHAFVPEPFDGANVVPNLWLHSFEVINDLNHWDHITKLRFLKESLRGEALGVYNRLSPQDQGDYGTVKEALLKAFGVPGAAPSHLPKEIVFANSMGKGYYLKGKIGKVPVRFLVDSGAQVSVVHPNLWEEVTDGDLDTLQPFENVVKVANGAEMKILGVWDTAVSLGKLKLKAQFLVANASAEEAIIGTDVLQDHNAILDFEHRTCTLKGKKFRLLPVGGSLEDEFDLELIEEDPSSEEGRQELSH
Put plainly: SASPase proteolytic activity assay with Dabcyl-QIDRIMEK-Edans substrate. The conditions noted are these: for ability to increase the catalytic activity of SASPase: same enzymatic assay, FLG2-Hs replaced with the synthesized peptide. In kind it is biochemical. On the procedure: A recombinant 28 kDa SASPase (SASPase_28) constituted of the amino acids extending from positions 85 to 343 of the sequence represented by the reference Q53RT3 (Uniprot/Swissprot Ref.) was prepared as described by Bernard et al., (J. Invest. Dermatol., 2005, 125: 278-287).
SASPase_28 at 0.025 mg/ml is in the presence of a colorimetric substrate, Dabcyl-QIDRIMEK-Edans, at 0.01 mM (Production Jerini Peptide Ref. D17: JPT Peptide Technologies GmbH) in a PBS buffer.
The hydrolysis of the colorimetric substrate by the activated SASPase results in the separation of the EDANS fluorochrome and of its deactivator (or quencher) Dabcyl, and in an increase in the EDANS fluorescence.
The fluorescent signal is measured at λex 340 nm/λem 490 nm. The fluorescence is read every 10 minutes for 1 h 30 min, at 37° C., with a SPECTRAMAX M5e (Molecular Devices).
The previous enzymatic assay was repeated with FLG2-Hs being replaced with each of the peptides thus prepared.

The target in another data set is T2, filaggrin-2 (FLG2) (Homo sapiens, UniProt Q5D862).
T2 construct: expressed in transfected cells; host or cells: double-hybrid system
T2 sequence (Q5D862 2-213): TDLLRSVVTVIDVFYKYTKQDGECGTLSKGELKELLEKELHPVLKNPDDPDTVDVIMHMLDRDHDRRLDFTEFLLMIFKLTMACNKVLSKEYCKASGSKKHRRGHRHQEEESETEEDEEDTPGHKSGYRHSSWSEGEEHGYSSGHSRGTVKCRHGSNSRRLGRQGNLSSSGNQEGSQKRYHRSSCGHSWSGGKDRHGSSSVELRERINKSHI
Put plainly: double-hybrid interaction of SASPase_28 fragments with filaggrin-2. The note with it: N-terminal fragment of SASPase_28, amino acids 11-86. It counts as binding. On the procedure: A first study using the “double-hybrid” technique was carried out using the whole 28 kDa SASPase protein in its wild-type form (SASPase_28, GENBANK Ref. gi16553767) and in its form mutated at the catalytic aspartic acid (SASPase_28D128A), and also the 37 kDa SASPase form (SASPase_37), in its whole form (GENBANK Ref. gi189409121), and a fragment corresponding to the N-terminal end of 84 amino acids of the protein relative to the sequence of SASPase_28 ([…]).
The SASPase sequences were fused to a DNA-binding domain, LexA, according to the orientation N-LexA-SASPase-C, so as to keep the C-terminal end of the SASPase free, with the exception of the SASPase_28N84 sequence which is fused to the LexA domain according to the orientation N-SASPase_28N84-LexA-C.
(§1) The prey sequences were fused to the Ga14 transcription-activating domain.
(§2) Supplementary experiments were carried out in order to reduce and identify the size of the sequences responsible for this interaction between SASPase_28 and filaggrin-2.

In the next data set the target is T3, SASPase (Homo sapiens, UniProt Q53RT3).
T3 construct: expressed in transfected cells; host or cells: double-hybrid system
T3 sequence (Q53RT3 1-259 isoform Q53RT3-2): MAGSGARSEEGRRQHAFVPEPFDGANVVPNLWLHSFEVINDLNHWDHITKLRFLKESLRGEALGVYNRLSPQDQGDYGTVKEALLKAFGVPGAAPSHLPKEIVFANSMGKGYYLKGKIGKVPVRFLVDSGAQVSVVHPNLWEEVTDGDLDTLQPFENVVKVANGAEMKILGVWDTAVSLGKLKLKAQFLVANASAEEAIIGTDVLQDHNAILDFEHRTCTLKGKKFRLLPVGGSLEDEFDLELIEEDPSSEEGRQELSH
Put plainly: double-hybrid interaction of filaggrin-2 fragments with SASPase. In kind it is binding. The note with it: N-terminal S100 domain of filaggrin-2, amino acids 2-95. On the procedure:
The interaction with a SASPase was found using, as bait, the filaggrin-2 fragment identified as interacting with the SASPase_28 and SASPase_37 sequences, and corresponding to amino acids 2-213 of the Genbank sequence: gi:62122916.
The sequence was fused to the DNA-binding domain, LexA, according to the orientation N-LexA-FLG22-213-C.
as §1, §2

As for “SEQ ID NO: 10: peptide of 8 to 20 amino acids synthesized from positions 71 to 90 of FLG2, SEQ ID NO: 9 (FTEFLLMIFKLTMACNKVLS; /mol_type=“protein” /organism=“Homo sapiens”; listed as Homo sapiens)”, the “ability to increase the catalytic activity of SASPase” value with SASPase_28 is given as “particularly significant ability to increase”. Take “SEQ ID NO: 11: peptide of 8 to 20 amino acids synthesized from positions 71 to 90 of FLG2, SEQ ID NO: 9 (EFLLMIFKLTMACNK; /mol_type=“protein” /organism=“Homo sapiens”; listed as Homo sapiens)”: the “ability to increase the catalytic activity of SASPase” value with SASPase_28 is “particularly significant ability to increase”. Still for that read-out and setting: the entry for “SEQ ID NO: 12: peptide of 8 to 20 amino acids synthesized from positions 71 to 90 of FLG2, SEQ ID NO: 9 (LMIFKLTMACNKVLS; /mol_type=“protein” /organism=“Homo sapiens”; listed as Homo sapiens)” is “particularly significant ability to increase”.

With “SEQ ID NO: 13: peptide of 8 to 20 amino acids synthesized from positions 71 to 90 of FLG2, SEQ ID NO: 9 (LMIFKLTMACNKV; /mol_type=“protein” /organism=“Homo sapiens”; listed as Homo sapiens)”, the “ability to increase the catalytic activity of SASPase” value in the data set with SASPase_28 is recorded as “particularly significant ability to increase”. The same measure, in the same setting: to “SEQ ID NO: 14: peptide of 8 to 20 amino acids synthesized from positions 71 to 90 of FLG2, SEQ ID NO: 9 (TEFLLMIFKLTMACNK; /mol_type=“protein” /organism=“Homo sapiens”; listed as Homo sapiens)” belongs “particularly significant ability to increase”; to “SEQ ID NO: 15: peptide of 8 to 20 amino acids synthesized from positions 71 to 90 of FLG2, SEQ ID NO: 9 (TEFLLMIF; /mol_type=“protein” /organism=“Homo sapiens”; listed as Homo sapiens)”, “particularly significant ability to increase”.

B1: SEQ ID NO: 16: amino acid sequence extending from positions 97 to 173 of the Q53RT3 sequence of SASPase (protein, listed as Homo sapiens)
chain: RQHAFVPEPFDGANVVPNLWLHSFEVINDLNHWDHITKLRFLKESLRGEALGVYNRLSPQDQGDYGTVKEALLKAFG
modifications: /mol_type=“protein” /organism=“Homo sapiens”
Consider B1, for which, in the data set with filaggrin-2 (FLG2), the “interaction with FLG2” value was “sufficient for the interaction with FLG2”.

B2: FLG2-Hs: recombinant filaggrin-2, positions 2 to 213 of Q5D862, fused to a Thioredoxin-His-S.Tag affinity label (protein)
chain: TDLLRSVVTVIDVFYKYTKQDGECGTLSKGELKELLEKELHPVLKNPDDPDTVDVIMHMLDRDHDRRLDFTEFLLMIFKLTMACNKVLSKEYCKASGSKKHRRGHRHQEEESETEEDEEDTPGHKSGYRHSSWSEGEEHGYSSGHSRGTVKCRHGSNSRRLGRQGNLSSSGNQEGSQKRYHRSSCGHSWSGGKDRHGSSSVELRERINKSHI
modifications: left off: large carriers
On to B2, for which the “enzymatic activity of SASPase” value in the data set with SASPase_28 (SASPase_28 0.025 mg/ml, substrate 0.01 mM, PBS, 37° C., FLG2-Hs at 0.01 to 10 times the SASPase concentration) is reported as “significantly increased”.

B3: SEQ ID NO: 9: amino acid sequence extending from positions 2 to 95 of filaggrin-2 Q5D862 (N-terminal S100 domain) (protein, listed as Homo sapiens)
chain: TDLLRSVVTVIDVFYKYTKQDGECGTLSKGELKELLEKELHPVLKNPDDPDTVDVIMHMLDRDHDRRLDFTEFLLMIFKLTMACNKVLSKEYCKA
modifications: /mol_type=“protein” /organism=“Homo sapiens”
As to B3, in the data set with SASPase, the “interaction with SASPase” value is “involved in the interaction with SASPase”.
